# Legend:
# [1] = molecular target: T1, human PD-L1 expressed on cells (HCC827, NCI-H292, CHO-PD-L1, engineered CHO-K1) (human, UniProt Q9NZQ7 19-290); assay: cell-based or functional assay
# [2] = molecular target: T2, cynomolgus PD-L1, his tagged (cPD-L1-his) (cynomolgus (Macaca fascicularis), UniProt G7PSE7 19-238); assay: BLI (ForteBio Octet), IgG on AHC sensor, cPD-L1-his analyte, 1:1 fit
# T2 construct: also called cyPD-L1-His; Cyno PD-L1
# Experimental: (§1) Characterization of chimeric anti-PD-L1 antibodies. ForteBio octet binding of purified chimeric antibodies and recombinant hPD-L1-his and cPD-L1-his was measured. Chimeric human antibodies were captured on AHC (Anti-human IgG-Capture) Biosensor, hPD-L1-his or cPD-L1-his analytes were titrated from 100 nM in a 2× series dilution. The buffer reference was subtracted from the signal and aligned to the baseline. KD, Kon and Koff values were generated using 1:1 fitting model as described above.
# [3] = molecular target: T3, human PD-L1 Fc fusion (hPD-L1-Fc) (human, UniProt Q9NZQ7 19-238, limits assumed); assay: blocking ELISA: antibody titrated + biotin-hPD-1-Fc on coated hPD-L1-Fc
# T3 construct: not shown: Fc part
# T3 sequence (Q9NZQ7 19-238 limits assumed): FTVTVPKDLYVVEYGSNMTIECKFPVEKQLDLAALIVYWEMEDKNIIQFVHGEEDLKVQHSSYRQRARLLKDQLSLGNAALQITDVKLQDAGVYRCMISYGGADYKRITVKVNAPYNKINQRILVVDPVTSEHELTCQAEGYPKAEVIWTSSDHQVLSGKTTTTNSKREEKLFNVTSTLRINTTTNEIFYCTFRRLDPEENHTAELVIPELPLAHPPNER
# From the text: The plate was developed with TMB and Stop buffer, the absorbance at 450 nm was read using SpectraMax plate reader. The A450 absorbance was normalized to the control that without antibody for the percentage values. The curve and IC₅₀ were generated using GraphPad Prism software.
# Protein A purified chimeric antibodies were examined by size exclusion chromatography and quantified with a UV-Vis spectrophotometer (NanoDrop; mAU=milli absorbance units).
# [4] = molecular target: T4, human PD-L1, his tagged (hPD-L1-his) (human, UniProt Q9NZQ7 19-238, limits assumed); assay: BLI (ForteBio Octet), IgG on AHC sensor, hPD-L1-his analyte, 1:1 fit
# T4 construct: also called huPD-L1-His; recombinant human PD-L1; not shown: his tag
# T4 sequence (Q9NZQ7 19-238 limits assumed): as above
# Experimental: as §1
# [5] = molecular target: T1, human PD-L1 expressed on cells (HCC827, …); assay: flow cytometry on HCC827 cells, apparent Kd
# Experimental: (§2) FIG. 14 is a graph showing binding of chimeric PD-L1 antibodies to HCC827 (FIG. 14A) and NCI-H292 (FIG. 14B) lung epithelial cell lines. Binding was measured using a FACS analysis with a […] secondary antibody. MFI=mean fluorescence intensity.
# (§3) Purified chimeric antibodies were evaluated for their ability to bind PD-L1 expressed on two human cancer cell lines. HCC827 and NCI-292 cells were incubated with titrated antibodies for 30 min at 4° C. Cells were washed and incubated with AF647-labeled goat anti-human IgG(H+L) for 30 min at 4° C. Cells were washed, fixed and analyzed on FACSCelesta.
# [6] = molecular target: T1, human PD-L1 expressed on cells (HCC827, …); assay: flow cytometry MFI, CHO-PD-L1 cells (10 nM) against parental CHO cells (100 nM)
# Experimental: CHO cells were incubated with 100 nM antibodies and CHO-PD-L1 cells (from Bioassay) with 10 nM antibodies for 30 min at 4° C. Cells were washed and incubated with goat anti-human IgG(H+L) for 30 in at 4° C. The washed cells were fixed and run on FACSCelesta.
# [7] = molecular target: T1, human PD-L1 expressed on cells (HCC827, …); assay: flow cytometry on NCI-H292 cells, apparent Kd
# Experimental: as §2, §3
# T2 sequence (G7PSE7 entry or part of it limits assumed, form in doubt): as the sequence (Q9NZQ7 19-238 limits assumed) above, with A33T, A34S, S62N, R68Q, Q82R, F173L, T185A, T192I, H215L counted along it
# T1 sequence (Q9NZQ7 19-290, change not shown): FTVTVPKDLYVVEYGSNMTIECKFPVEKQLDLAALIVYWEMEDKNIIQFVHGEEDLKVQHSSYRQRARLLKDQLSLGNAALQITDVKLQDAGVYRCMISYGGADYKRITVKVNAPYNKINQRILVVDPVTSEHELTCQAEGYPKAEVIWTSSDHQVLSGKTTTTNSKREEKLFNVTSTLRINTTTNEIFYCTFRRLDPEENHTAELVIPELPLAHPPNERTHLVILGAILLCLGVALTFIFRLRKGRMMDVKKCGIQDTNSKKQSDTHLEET
Binder,"IC50, nM (Function) [1] [nM]",Kd [2] [nM],IC50 [3] [nM],Kd [4] [nM],Kd [5] [nM],Bind PD-L1-CHO/CHO [6] [x],Kd [7] [nM]
"767-hIgG1 (chimeric PAL767) (antibody, V domains shown) VH: EVQLQESGPSLVKPSQTLSLTCSVTGDSITSGYWNWIRKFPGNKLEYMGYISYTGSTYYNPSLKRRISITRDTSKNQYYLQLNSVTTEDTATYYCASQGGWLQAMDYWGQGTSVTVSS VL: not shown",0.6,0.266,2,0.0522,0.26,> 100,0.23
"752-hIgG1 (chimeric PAL752) (antibody, V domains shown) VH: EVQLQESGAELARPGASVKLSCKASGHAFTSDSINWVKQRIGQGLEWIGEIYPRSGNPYYNEKFKGKATLTADKSSSTAYMELRSLTSEDSAVYFCATDYYGRYFDVWGTGTTVTVSS VL: DIQMTQSSFSFSVSLGDRVTIICKASEDIYNRLAWYQQKPGNTPRLLISGATSLETGVPSRFSGSGSGKDYTLSITSLQTEDVATYYCQQYWSTPWTFGGGTKLEIK",1.5,3.18,4.6,1.18,3.63,–,4.98

# The remaining lines, values ahead:
"IC50, nM (Function) [1] [nM]",Kd [2] [nM],IC50 [3] [nM],Kd [4] [nM],Kd [5] [nM],Bind PD-L1-CHO/CHO [6] [x],Kd [7] [nM],Binder
1,1.12,–,1.43,1.02,–,1.17,"771-hIgG1 (chimeric PAL771) (antibody, V domains shown) VH: EVQLQESGAELVKPGASVKLSCTASGFNIKDTYMHWVKQRPEQGLEWIGRIDPANGNTKYDPKFPGKATITADTSSNTAYLQLSSLTSEDAAVYYCARPFNYRFYDVYYFDYWGQGTTLTVST VL: QIVLTQSPAIMSASPGEKVTMTCSASSSVSYMYWYQQKPGSSPRLLIYDTSNLASGVPLRFSGSGSGTSYSLTLSRMEAEDAATYYCQQWSTYPLTFGAGTKLELK"
0.9,0.867,2.9,0.043,1.57,> 100,1.68,"788-hIgG1 (chimeric PAL788) (antibody, V domains shown) VH: QVQLQQPGAELVKPGASVKLSCKASGYTFTSNWMNWVKQRPGRGLEWIGRIHPSDSETHYHQKFKSKATLTVDKSSSTAYIQLSSLTSEDSAVYYCAHSSGDYGRDYWGQGTTLTVSS VL: NIVLTQSPASLAVSLGQRATISCRASESVDSYGNSFMHWYQQKPGQPPKLLIYLASNLQSGVPARFSGSGSRTDFTLTIDPVEADDAATYYCQQNNEDPWTFGGGTKLEIK"
0.5,0.724,1.9,1.64,0.29,> 100,0.19,"785-hIgG1 (chimeric PAL785) (antibody, V domains shown) VH: EVQLQESGPELVKPGTSVKMSCKASGYTFTSYVMHWVKQRPGQGLEWIGYINPYNDGSKYNEKFKGKATLTSDTSSSTAYMELSSLTSEDSAVYYCAKQTLDFWGQGTSVTVST VL: DIVLTQSPASLAVSLGQRATISCRASESVEFYGTTLMQWYQQKPGQPPKLLIYAASNVESGVPARFSGSGSGTDFSLNIHPVEEGDIGMYFCQQSRKVPYTFGGGTKLEIK"

# Reference: patent US20240067729A1 (PALLEON PHARMACEUTICALS, published 2024)
